Positions count from the first letter of the chain named.
B1: human mAb WNV-86 (antibody, V domains shown)
VH: QVQLVQSGGGLVQPGRSLRLCCAASGFSFDDFAMHWVRQAPGKGLEWVSGINWNSGHIGYADSVKGRFTISRDNAKNSLCLQMNSLRPEDTALYYCAKDRAYYFGSGTSGGAFDVWGQGTLVTVSS
VL: DIVMTQSPSSLSASVGDRVTITCRASQNIISYLNWYQQKPGKAPKLLIYDASSLQSGVPSRFSGSGSGTDFTLTISSLQPEDFATYYCQRSFSTPLTFGGGTKVEIK
B2: human mAb WNV-62 (antibody, V domains shown)
VH: QVQLVESGGGVVQPGRSLRLSCAASGFTFSSYGMHWVRQAPGKGLEWVAVMSYDGSKIYYADSVKGRFTISRDNSKNTLYLQMDSLRAEDTAVYYCAKVGYYDGSRYDLIAEYFQYWGQGTLVTVSS
VL: QSVLTQPPSVSGAAGQRVTISCTGSSSNIGAGYDVHWYQQLPGTAPKLLIYGNNNRPSGVPDRFSGSKSDTSASLAITGLRPEDELDYYCQSYDNRLSAYVFGTGTKVTVL
B3: human mAb WNV-57 (antibody, V domains shown)
VH: QVQLVESGGGVVQPGRSLRLACAASGFTLSDFAIHWVRQAPGKGLEWVAIISYDGNIKYYADSVKGRFTISSDNSKNTVYLQMNSLRAEDTAMYYCARDPDVVETAHDAFDIWGQGTLVTVSS
VL: DILMTQSPSSLSASVGDRVTITCRASQNIKNYLNWYQQKPGKAPKLLIYAASSLQSLVPSRFSGSGSGTDFTLTISSLQPEDFATYYCQQSYSSFRTFGQGTKVEVK
B4: human mAb WNV-10 (antibody, V domains shown)
VH: QVQLVESGGGVVQPGRSLRLSCAASGFTFSSHAMHWVRQAPGKGLEWVAVISYDIINEYYADSVKGRFTISRDNSKNTLYLQMNSLRAEDTAVYYCARDGYFPNSSGEGFFDYWGQGTLVTVSS
VL: EIVMTQSPATLSVSPGERATLSCRASQSLSNNLAWYQQKPGQAPRLLIYGASTRATGIPARFSGSGSGTQFTLTISSLQSEDIAVYYCQQFNNWPWTFGQGTKVEIK

Legend:
[1] = molecular target: T1, West Nile virus E protein T64Q variant on RVPs (West Nile virus (WNV1 NY99 strain), UniProt Q9Q6P4 291-791, T64Q); assay: cell-based or functional assay
T1 sequence (looked up): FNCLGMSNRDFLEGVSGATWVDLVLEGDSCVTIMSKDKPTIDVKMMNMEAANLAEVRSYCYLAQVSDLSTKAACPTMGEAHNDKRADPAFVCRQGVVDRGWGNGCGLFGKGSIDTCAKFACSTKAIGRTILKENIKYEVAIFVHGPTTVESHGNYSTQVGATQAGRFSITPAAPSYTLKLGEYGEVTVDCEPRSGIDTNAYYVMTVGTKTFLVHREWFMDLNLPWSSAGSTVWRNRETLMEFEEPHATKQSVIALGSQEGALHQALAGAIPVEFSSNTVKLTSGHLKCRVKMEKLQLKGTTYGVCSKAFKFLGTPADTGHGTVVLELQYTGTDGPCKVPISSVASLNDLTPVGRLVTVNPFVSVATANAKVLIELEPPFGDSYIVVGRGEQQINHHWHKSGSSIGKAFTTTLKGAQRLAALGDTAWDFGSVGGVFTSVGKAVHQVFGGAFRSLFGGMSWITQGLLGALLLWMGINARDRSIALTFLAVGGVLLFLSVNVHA

[2] = molecular target: T2, West Nile virus E protein T208K variant on RVPs (West Nile virus (WNV1 NY99 strain), UniProt Q9Q6P4 291-791, T208K); assay: cell-based or functional assay
T2 sequence (looked up): T1 sequence (looked up) with Q64T, T208K

[3] = molecular target: T3, recombinant WNV E protein containing only DIII (West Nile virus, UniProt Q9Q6P4 586-694); assay: ELISA on plate-coated recombinant DIII
T3 construct: domain: DIII
T3 sequence: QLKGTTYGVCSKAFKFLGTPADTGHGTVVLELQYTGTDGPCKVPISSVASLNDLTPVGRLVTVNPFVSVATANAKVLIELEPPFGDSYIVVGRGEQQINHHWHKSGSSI

Row | Binder | fold increase in neutralization IC50 relative to WT RVPs [1] [fold] | fold increase in neutralization IC50 relative to WT RVPs [2] [fold] | binding result [3]
1 | B1 | 88 | 13 | –
2 | B2 | – | – | no binding
3 | B3 | – | – | no binding
4 | B4 | – | – | no binding

Reference: patent publication US12024555 (VANDERBILT UNIVERSITY, dated 2024)
